Test results taken from patent US12072338B2, “Pharmaceutical peptides for the treatment of inflammatory diseases” (PROTAGONISTS LTD., priority 2007, dated 2024).
Blank lines part the entries; values can stand above or below the substance they belong to.

Experiments:
Eotaxin = target: T1, Eotaxin (Homo sapiens, UniProt P51671); test: Micro-array analysis of chemokine binding peptides: Eotaxin
T1 construct: purchased 300-21
Procedure: (§1) (1) Printing: Chemokine (CK) solution (in water) was serially diluted with Print Reagent (GenTel BioSurfaces USA) to final concentrations of 50 μg and 25 μg/ml. BSA/BSA-Biotin control solutions (in water) were diluted with Print Reagent to 100 μg/ml. Amplified stock of M13 phage control (M13KEgIII Cloning Vector, New England Biolabs, Cat.No.E8101S) was stored in Tris Buffered Saline (TBS; pH7.5, 4° C.) and diluted with Print Reagent to the working titre (10^8 pfu/μl). An automated spotting robot (16 pin print tool, 0.4 mm head; BioRobotics, UK) was used to print the CK/BSA control/M13 control, 5 repeats per sample (CK 25 μg/ml and 50 μg/ml; BSA 100 μg/ml; M13 20 μl), on PATH Protein Microarray Slides (GenTel, Prod.No. 2-1005/-1025) at […], and 50-70% relative humidity. Printed micro-array slides were stored at Room Temperature (RT) or 4° C. for at least 24 h before use.
(§2) (2) Blocking: Block Buffer (500 μl/partition; PATHblock, GenTel, Prod.No. 2-1014) was applied to the slide for 1 hour at room temp (RT). After removal of Block Buffer, the slide was air dried for 25 minutes;
(§3) (3) Phage Presented Peptide Binding: Amplified recombinant phage stock was stored in TBS and diluted with Wash Buffer to working titer (10^7 pfu/μl). Recombinant phage suspension (300 μl) was applied per partition and incubated at RT for 1 hour with gentle agitation.
(§4) (4) First Washing: The slides were washed twice with Wash Buffer 300 μl/partition).
(§5) (5) Primary Antibody (Ab) Labeling: The slides were incubated with the Primary Ab (1 mg/ml diluted ×2500 (Wash Reagent), 300 μl; Mouse Anti-M13 monoclonal Ab; Amersham Biosciences, UK; Product Code 27-9420-01) for 45 minutes at RT.
(§6) (6) Second Washing: The slides were washed twice with Wash Buffer (300 μl/partition).
(§7) (7) Secondary Ab Labeling: The slides were incubated with Secondary Ab (1.5 mg/ml diluted ×5000 (Wash Reagent), 300 μl; Cy3-conjugated AffiniPure Goat Anti-Mouse IgG; Jackson ImmunoReserch Labs, USA; Product Code 115-165-062).
(§8) (8) Third Washing: The slides were washed twice with Wash Buffer (300 μl/partition).
(§9) (9) Rinse: the slides were rinsed twice with Rinse Buffer (PATHrinse, GenTel, Prod.No. 2-1018) then dried well.
(§10) (10) Scanning: The peptide-bound, labeled slide was scanned (Laser Intensity 80%, Gain 80%, Resolution 10 μm) with a ScanArray Life Scanner (Packard BioChip Technologies, USA).
(§11) (11) Analysis: Quantitative analysis of micro-array was performed by the SpotReader program of Niles Scientific (USA) and presented as Relative Fluorescence (RF) as a function of CK concentration. Micro-array readout (Cy3 fluorescence) was quantified to determine the relative binding affinities of a CBP for the CKs and by inference, the specificity of the CBP for binding to a CK.

BCA-1 = target: T2, BCA-1 (Homo sapiens, UniProt O43927); test: Micro-array analysis of chemokine binding peptides: BCA-1
T2 construct: purchased 300-47
T2 sequence (O43927 23-109): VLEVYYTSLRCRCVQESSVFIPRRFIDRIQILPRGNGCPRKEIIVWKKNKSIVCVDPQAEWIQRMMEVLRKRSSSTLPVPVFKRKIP
Procedure: as §1, §2, §3, §4, §5, §6, §7, §8, §9, §10, §11

I-TAC = target: T3, I-TAC (Homo sapiens, UniProt O14625); test: Micro-array analysis of chemokine binding peptides: I-TAC; conditions: limit = start of the upper 75% of that peptide's response range
T3 construct: purchased 300-46
T3 sequence (O14625 22-94): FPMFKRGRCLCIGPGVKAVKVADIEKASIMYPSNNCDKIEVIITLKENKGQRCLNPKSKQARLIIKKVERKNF
Procedure: as §1, §2, §3, §4, §5, §6, §7, §8, §9, §10, §11

Exodus-2 = target: T4, Exodus-2 (Homo sapiens, UniProt O00585); test: Micro-array analysis of chemokine binding peptides: Exodus-2
T4 construct: purchased 300-35
T4 sequence (O00585 24-134): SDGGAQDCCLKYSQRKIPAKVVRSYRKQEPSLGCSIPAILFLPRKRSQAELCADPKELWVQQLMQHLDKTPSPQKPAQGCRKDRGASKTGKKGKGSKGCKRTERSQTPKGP
Procedure: as §1, §2, §3, §4, §5, §6, §7, §8, §9, §10, §11

MCP-1 = target: T5, MCP-1 (Homo sapiens, UniProt P13500); test: Micro-array analysis of chemokine binding peptides: MCP-1
T5 construct: purchased 300-04
Procedure: as §1, §2, §3, §4, §5, §6, §7, §8, §9, §10, §11

RANTES = target: T6, RANTES (Homo sapiens, UniProt P13501); test: Micro-array analysis of chemokine binding peptides: RANTES
T6 construct: purchased 300-06
T6 sequence (P13501 24-91): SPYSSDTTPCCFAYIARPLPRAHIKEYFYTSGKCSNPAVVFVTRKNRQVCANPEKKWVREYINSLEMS
Procedure: as §1, §2, §3, §4, §5, §6, §7, §8, §9, §10, §11

Eotaxin 2 = target: T7, Eotaxin 2 (Homo sapiens, UniProt O00175); test: Micro-array analysis of chemokine binding peptides: Eotaxin 2
T7 construct: purchased 300-33
T7 sequence (O00175 27-119): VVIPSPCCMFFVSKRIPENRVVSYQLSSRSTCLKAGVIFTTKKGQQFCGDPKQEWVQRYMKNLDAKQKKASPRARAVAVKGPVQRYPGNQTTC
Procedure: as §1, §2, §3, §4, §5, §6, §7, §8, §9, §10, §11

Lymphotactin = target: T8, Lymphotactin (Homo sapiens, UniProt P47992); test: Micro-array analysis of chemokine binding peptides: Lymphotactin
T8 construct: purchased 300-20
T8 sequence (P47992 22-114): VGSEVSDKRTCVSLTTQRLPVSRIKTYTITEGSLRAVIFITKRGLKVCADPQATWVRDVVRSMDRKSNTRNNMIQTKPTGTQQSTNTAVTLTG
Procedure: as §1, §2, §3, §4, §5, §6, §7, §8, §9, §10, §11

GRO-β = target: T9, GRO-β (Homo sapiens, UniProt P19875); test: Micro-array analysis of chemokine binding peptides: GRO-β
T9 construct: purchased 300-39
T9 sequence (P19875 35-107): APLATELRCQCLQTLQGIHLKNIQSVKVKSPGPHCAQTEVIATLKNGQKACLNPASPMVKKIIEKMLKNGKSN
Procedure: as §1, §2, §3, §4, §5, §6, §7, §8, §9, §10, §11

MCP-4 = target: T10, MCP-4 (Homo sapiens, UniProt Q99616); test: Micro-array analysis of chemokine binding peptides: MCP-4
T10 construct: purchased 300-24
Procedure: as §1, §2, §3, §4, §5, §6, §7, §8, §9, §10, §11

Mig = target: T11, Mig (Homo sapiens, UniProt Q07325); test: Micro-array analysis of chemokine binding peptides: Mig; conditions: limit = start of the upper 75% of that peptide's response range
T11 construct: purchased 300-26
T11 sequence (Q07325 23-125): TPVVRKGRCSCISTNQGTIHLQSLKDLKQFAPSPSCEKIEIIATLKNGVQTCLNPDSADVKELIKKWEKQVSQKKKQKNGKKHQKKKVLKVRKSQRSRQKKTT
Procedure: as §1, §2, §3, §4, §5, §6, §7, §8, §9, §10, §11

IL-8 = test: Micro-array analysis of chemokine binding peptides: IL-8
Procedure: as §1, §2, §3, §4, §5, §6, §7, §8, §9, §10, §11

MCP-2 = target: T12, MCP-2 (Homo sapiens, UniProt P80075); test: Micro-array analysis of chemokine binding peptides: MCP-2
T12 construct: purchased 300-15
T12 sequence (P80075 24-99): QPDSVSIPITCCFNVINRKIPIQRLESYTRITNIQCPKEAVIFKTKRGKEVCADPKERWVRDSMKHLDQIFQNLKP
Procedure: as §1, §2, §3, §4, §5, §6, §7, §8, §9, §10, §11

Fractalkine = target: T13, Fractalkine (Homo sapiens, UniProt P78423); test: Micro-array analysis of chemokine binding peptides: Fractalkine
T13 construct: purchased 300-31
T13 sequence (P78423 25-100 limits assumed): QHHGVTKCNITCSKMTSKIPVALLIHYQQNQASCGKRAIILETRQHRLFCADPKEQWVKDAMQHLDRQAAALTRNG
Procedure: as §1, §2, §3, §4, §5, §6, §7, §8, §9, §10, §11

TECK = target: T14, TECK (Homo sapiens, UniProt O15444); test: Micro-array analysis of chemokine binding peptides: TECK
T14 construct: purchased 300-45
T14 sequence (O15444 24-150): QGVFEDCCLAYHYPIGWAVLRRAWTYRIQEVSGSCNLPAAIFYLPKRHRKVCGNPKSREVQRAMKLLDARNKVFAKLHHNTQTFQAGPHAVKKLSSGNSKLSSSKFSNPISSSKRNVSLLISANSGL
Procedure: as §1, §2, §3, §4, §5, §6, §7, §8, §9, §10, §11

Eotaxin 3 = target: T15, Eotaxin 3 (Homo sapiens, UniProt Q9Y258); test: Micro-array analysis of chemokine binding peptides: Eotaxin 3
T15 construct: purchased 300-48
T15 sequence (Q9Y258 24-94): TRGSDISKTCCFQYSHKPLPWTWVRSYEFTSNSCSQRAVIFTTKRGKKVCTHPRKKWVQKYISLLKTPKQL
Procedure: as §1, §2, §3, §4, §5, §6, §7, §8, §9, §10, §11

SDF1 = test: Micro-array analysis of chemokine binding peptides: SDF1 (isoform not given)
Procedure: as §1, §2, §3, §4, §5, §6, §7, §8, §9, §10, §11

I-309 = target: T16, I-309 (Homo sapiens, UniProt P22362); test: Micro-array analysis of chemokine binding peptides: I-309; conditions: limit = start of the upper 75% of that peptide's response range
T16 construct: purchased 300-37
T16 sequence (P22362 24-96): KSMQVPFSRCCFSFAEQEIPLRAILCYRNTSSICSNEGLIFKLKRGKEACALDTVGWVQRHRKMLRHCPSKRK
Procedure: as §1, §2, §3, §4, §5, §6, §7, §8, §9, §10, §11

IP-10 = target: T17, IP-10 (Homo sapiens, UniProt P02778); test: Micro-array analysis of chemokine binding peptides: IP-10; conditions: limit = start of the upper 75% of that peptide's response range
T17 construct: purchased 300-12
T17 sequence (P02778 22-98): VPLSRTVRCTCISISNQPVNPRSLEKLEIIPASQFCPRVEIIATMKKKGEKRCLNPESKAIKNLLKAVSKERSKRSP
Procedure: as §1, §2, §3, §4, §5, §6, §7, §8, §9, §10, §11

[1] = limit = start of the upper 75% of that peptide's response range

Chain of IL-8 (P10145 28-99 limits assumed): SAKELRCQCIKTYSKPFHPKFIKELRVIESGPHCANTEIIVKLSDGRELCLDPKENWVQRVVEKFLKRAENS
T10 sequence (Q99616 17-98): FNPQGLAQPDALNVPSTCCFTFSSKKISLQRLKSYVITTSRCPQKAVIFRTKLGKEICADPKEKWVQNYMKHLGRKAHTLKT
T5 sequence (P13500 24-99): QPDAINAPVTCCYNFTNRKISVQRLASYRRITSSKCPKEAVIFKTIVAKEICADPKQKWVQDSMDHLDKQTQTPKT
Chain of SDF1 (P48061 22-89 limits assumed): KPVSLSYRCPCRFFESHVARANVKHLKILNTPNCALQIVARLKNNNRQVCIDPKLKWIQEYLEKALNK

- binding to Eotaxin, stated in words (Eotaxin): bound
- binding to BCA-1, stated in words (BCA-1): bound
- binding to I-TAC with relatively high affinity (Relative Fluorescence Units) (I-TAC): > 15,000 RFU
- binding to Exodus-2, stated in words (Exodus-2): bound
- binding to MCP-1, stated in words (MCP-1): bound
- binding to RANTES, stated in words (RANTES): bound
- binding to Eotaxin 2, stated in words (Eotaxin 2): bound
- binding to Lymphotactin, stated in words (Lymphotactin): bound
- binding to GRO-β, stated in words (GRO-β): bound
- binding to MCP-4, stated in words (MCP-4): bound
- binding to Mig with relatively high affinity (Relative Fluorescence Units) (Mig): > 15,000 RFU
- binding to IL-8, stated in words (IL-8): bound
- binding to MCP-2, stated in words (MCP-2): bound
- binding to Fractalkine, stated in words (Fractalkine): bound
- binding to TECK, stated in words (TECK): bound
- binding to Eotaxin 3, stated in words (Eotaxin 3): bound
Substance: SYYDDVGL [Ph-p27]

- binding to SDF1 (isoform not given), stated in words (SDF1): bound
- binding to Eotaxin with relatively high affinity (Relative Fluorescence Units) (Eotaxin; [1]): > 15,000 RFU
- binding to BCA-1, stated in words (BCA-1): bound
- binding to I-TAC with relatively high affinity (Relative Fluorescence Units) (I-TAC): > 15,000 RFU
- binding to I-309 with relatively high affinity (Relative Fluorescence Units) (I-309): > 15,000 RFU
- binding to Lymphotactin, stated in words (Lymphotactin): bound
- binding to IP-10 with relatively high affinity (Relative Fluorescence Units) (IP-10): > 15,000 RFU
- binding to MCP-4 with relatively high affinity (Relative Fluorescence Units) (MCP-4; [1]): > 15,000 RFU
- binding to Mig with relatively high affinity (Relative Fluorescence Units) (Mig): > 15,000 RFU
- binding to IL-8 with relatively high affinity (Relative Fluorescence Units) (IL-8; [1]): > 15,000 RFU
- binding to MCP-2 with relatively high affinity (Relative Fluorescence Units) (MCP-2; [1]): > 15,000 RFU
- binding to Fractalkine, stated in words (Fractalkine): bound
- binding to TECK, stated in words (TECK): bound
- binding to Eotaxin 3 with relatively high affinity (Relative Fluorescence Units) (Eotaxin 3; [1]): > 15,000 RFU
Substance: WVFG (listed as Homo sapiens) [Ph-p8.4]
